# T1: GST-hTERT-HA (C-terminal region, amino acid 946-1132, of hTERT), O14746
# T1 chain: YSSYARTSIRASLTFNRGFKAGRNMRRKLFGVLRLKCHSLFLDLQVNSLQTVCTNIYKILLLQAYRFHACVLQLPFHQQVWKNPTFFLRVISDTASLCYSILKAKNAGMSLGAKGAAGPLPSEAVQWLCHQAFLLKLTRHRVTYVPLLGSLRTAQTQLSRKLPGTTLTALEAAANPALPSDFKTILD
# Experiments:
# [1] = molecular target: T2, Flag-hTERT (N-terminal Flag-tagged full-length hTERT) (human, UniProt O14746 1-1132); experiment: co-immunoprecipitation from H1299 cells (anti-Flag IP, anti-V5 immunoblot), with MG132
# T2 construct: expressed in transfected H1299 cells; also called Flag-tagged hTERT
# Experimental: Amino acid sequences surrounding the RING finger domain in MKRN1 and mutants used in this study. Cysteines and a histidine in the RING finger domain are shown in red. Mutated residue in MKRN1^H307E is shown in blue. (C) H1299 cells co-transfected with hTERT-HA and MKRN1 -V5 were either untreated or treated for 2 hours with 10 μg/ml ALLnN. Anti-HA immunoprecipitates were analyzed by immunoblotting using an anti-V5 antibody probe. […] (D) H1299 cells co-transfected with Flag-hTERT and MKRN1-V5 were either untreated or treated for 2 hours with 10 μM MG132. Anti-Flag immunoprecipitates were analyzed by immunoblotting using an anti-V5 antibody probe. […] Flag-hTERT was visualized with an anti-Flag antibody probe.
# H1299 cells were transiently transfected with the expression vectors indicated in the figure legends using TransFast transfection reagent (Promega, Medison, Wis.) according to the manufacturer's instructions. Cells were lysed with buffer containing 0.5% NP-40, 50 mM Tris-HCl (pH 7.5), 150 mM NaCl, 2 mM phenyl methylsulphonyl fluoride. […] When ubiquitin conjugates of hTERT were detected, immunoprecipitation was performed with lysis buffer containing 0.1% SDS to dissociate its interacting proteins. […]
# [2] = molecular target: T1, GST-hTERT-HA (C-terminal region, amino …)
# [3] = molecular target: T2, Flag-hTERT (N-terminal Flag-tagged …); experiment: inferred from the dominant negative effect in the in vivo ubiquitination assay in H1299 cells
# Experimental: H1299 cells were transiently transfected with the expression vectors indicated in the figure legends using TransFast transfection reagent (Promega, Medison, Wis.) according to the manufacturer's instructions. Cells were lysed with buffer containing 0.5% NP-40, 50 mM Tris-HCl (pH 7.5), 150 mM NaCl, 2 mM phenyl methylsulphonyl fluoride. After centrifugation at 12,000 rpm for 30 min, the supernatants were immunoprecipitated for 2 hours with anti-Flag (Sigma, St. Louis, Mo.) or anti-HA (Santa Cruz biotechnology, Santa Cruz, Calif.) antibodies and then incubated with Sepharose beads conjugated to Protein G (Amersham Biosciences Inc., Piscataway, N.J.). When ubiquitin conjugates of hTERT were detected, immunoprecipitation was performed with lysis buffer containing 0.1% SDS to dissociate its interacting proteins. Immunoblot analyses were performed using anti-hTERT (Santa Cruz biotechnology, Santa Cruz, Calif.), anti-V5 (Invitrogen, Carlsbad, Calif.), anti-HA, and anti-Flag antibodies.
# To investigate whether MKRN1 contributes to the ubiqitination of hTERT in vivo, H1299 cells were cotransfected with Flag-hTERT, HA-ubiquitin, and MKRN1-V5 constructs, and immunoprecipitated with anti-Flag antibody followed by immunoblotting with anti-HA antibody. Ubiquitin conjugates of hTERT were easily detected in the presence of MG132 (FIG. 4B, lane 2 in upper blot). […]
binding result [1],binding result [3],Binder,in vitro ubiquitination assay (anti-HA immunoblot) [2]
binds,,"MKRN1-V5 (enzyme, not shown: small tags and cut ends, Full-length MKRN1 expressed in transfected H1299 cells) MAEAATPGTTATTSGAGAAAATAAAASPTPIPTVTAPSLGAGGGGGGSDGSGGGWTKQVTCRYFMHGVCKEGDNCRYSHDLSDSPYSVVCKYFQRGYCIYGDRCRYEHSKPLKQEEATATELTTKSSLAASSSLSSIVGPLVEMNTGEAESRNSNFATVGAGSEDWVNAIEFVPGQPYCGRTAPSCTEAPLQGSVTKEESEKEQTAVETKKQLCPYAAVGECRYGENCVYLHGDSCDMCGLQLLHPMDAAQRSQHIKSCIEAHEKDMELSFAVQRSKDMVCGICMEVVYEKANPSERRFGILSNCNHTYCLKCIRKWRSAKQFESKIIKSCPECRITSNFVIPSEYWVEEKEEKQKLILKYKEAMSNKACRYFDEGRGSCPFGGNCFYKHAYPDAGREEPQRQKVGTSSRYRAQRRNHFWELIEERENSNPFDNDEEEVVTFELGEMLLMLLAAGGDDELTDSEDEWDLFHDELEDFYDLDL",the C-terminal domain (residues 946-1132) of hTERT was efficiently ubiquitinated by wild-type MKRN1
,binds,"MKRN1^H307E-V5 (enzyme, not shown: small tags and cut ends, Expressed in transfected H1299 cells together with wild-type MKRN1-V5; also called hMKRN1^H307E) MAEAATPGTTATTSGAGAAAATAAAASPTPIPTVTAPSLGAGGGGGGSDGSGGGWTKQVTCRYFMHGVCKEGDNCRYSHDLSDSPYSVVCKYFQRGYCIYGDRCRYEHSKPLKQEEATATELTTKSSLAASSSLSSIVGPLVEMNTGEAESRNSNFATVGAGSEDWVNAIEFVPGQPYCGRTAPSCTEAPLQGSVTKEESEKEQTAVETKKQLCPYAAVGECRYGENCVYLHGDSCDMCGLQLLHPMDAAQRSQHIKSCIEAHEKDMELSFAVQRSKDMVCGICMEVVYEKANPSERRFGILSNCNETYCLKCIRKWRSAKQFESKIIKSCPECRITSNFVIPSEYWVEEKEEKQKLILKYKEAMSNKACRYFDEGRGSCPFGGNCFYKHAYPDAGREEPQRQKVGTSSRYRAQRRNHFWELIEERENSNPFDNDEEEVVTFELGEMLLMLLAAGGDDELTDSEDEWDLFHDELEDFYDLDL",but not by mutants MKRN1^307E or MKRN1^ΔC
